Three molecules from patent EP4725964A1 (Jiangsu Mabwell Health Pharmaceutical R&D Co., Ltd., dated 2026) can be followed below.

The target of experiment [1] is recombinant human Nectin-4 protein (human) (UniProt Q96NY8). The experiment in a line: ELISA, antigen coated at 5 ug/ml, antibody 0 ng/ml (blank control).
Experiment [2] has the same target. The experiment in a line: ELISA, antigen coated at 5 ug/ml, antibody 100 ng/ml. For orientation: ELISA stands for enzyme-linked immunosorbent assay.
The target is the same in experiment [3]. The experiment in a line: ELISA, antigen coated at 5 ug/ml, antibody 10 ng/ml.
For experiment [4] the target is unchanged. Kind of experiment: ELISA, antigen coated at 5 ug/ml, antibody 10000 ng/ml.
For experiment [5] the target is unchanged. Kind of experiment: ELISA, antigen coated at 5 ug/ml, antibody 1000 ng/ml.
Experiment [6] concerns the target T1, human Nectin-4 expressed by PC-3-Nectin-4 cells (human, UniProt Q96NY8 32-510).
T1 construct: Full-length human Nectin-4 gene (NCBI Gene ID 81607, 1533 bp) knocked into PC-3 cells; On intact cells in flow cytometry; in denatured cell lysate in Western blotting; also called Nectin-4-expressing cells; Nectin-4-positive cells
T1 sequence: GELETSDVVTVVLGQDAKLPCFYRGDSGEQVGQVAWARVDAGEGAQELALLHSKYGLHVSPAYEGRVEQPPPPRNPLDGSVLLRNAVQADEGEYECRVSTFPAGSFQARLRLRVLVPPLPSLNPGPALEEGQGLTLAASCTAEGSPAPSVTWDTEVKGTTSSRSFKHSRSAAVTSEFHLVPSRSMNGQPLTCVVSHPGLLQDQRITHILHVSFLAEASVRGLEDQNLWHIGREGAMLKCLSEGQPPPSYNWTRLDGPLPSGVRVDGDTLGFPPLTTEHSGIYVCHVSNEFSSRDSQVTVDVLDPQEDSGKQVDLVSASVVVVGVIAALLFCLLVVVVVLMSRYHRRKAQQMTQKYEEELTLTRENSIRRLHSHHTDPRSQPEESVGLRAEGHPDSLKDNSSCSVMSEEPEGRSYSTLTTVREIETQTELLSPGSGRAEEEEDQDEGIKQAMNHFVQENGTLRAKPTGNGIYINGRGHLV
The experiment in a line: flow cytometry on PC-3-Nectin-4 cells, antibody 5 ug/ml. On the technique in general: In flow cytometry, cells or beads pass a laser one at a time.

Experiment [7] deals with T2, Nectin-4 in human tissue sections (human, UniProt Q96NY8 32-510).
T2 construct: Endogenous Nectin-4 in formalin-fixed, paraffin-embedded human tissue sections (cell membrane and/or cytoplasm), as stained by immunohistochemistry; also called target protein Nectin-4; Nectin-4 in normal human tissues and tumor tissues
T2 sequence: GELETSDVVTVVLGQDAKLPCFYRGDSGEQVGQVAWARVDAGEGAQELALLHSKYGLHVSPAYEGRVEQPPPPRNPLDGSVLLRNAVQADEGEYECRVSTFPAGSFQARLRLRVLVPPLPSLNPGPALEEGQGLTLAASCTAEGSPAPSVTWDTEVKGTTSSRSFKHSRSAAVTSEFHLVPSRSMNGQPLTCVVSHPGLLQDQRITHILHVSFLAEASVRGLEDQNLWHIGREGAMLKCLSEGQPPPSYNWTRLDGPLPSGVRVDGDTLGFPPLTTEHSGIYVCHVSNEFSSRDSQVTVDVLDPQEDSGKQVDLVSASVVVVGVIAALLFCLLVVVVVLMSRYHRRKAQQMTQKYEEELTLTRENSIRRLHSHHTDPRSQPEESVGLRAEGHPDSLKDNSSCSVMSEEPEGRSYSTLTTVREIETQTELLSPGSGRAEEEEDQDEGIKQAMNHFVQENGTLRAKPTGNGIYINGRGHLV
Kind of experiment: IHC, normal human salivary gland, 3 samples, antibody 1 ug/ml.

In experiment [8] the target is T2, Nectin-4 in human tissue sections. The experiment in a line: IHC, normal human pancreas, antibody 1 ug/ml.
Experiment [9] shares this target. The experiment in a line: IHC, normal human skin, antibody 1 ug/ml.

B1: Antibody MM11 (antibody, mouse IgG1, kappa, V domains shown)
VH: DVQLQESGPGLVKPSQSLSLTCSVTGYSITSNFYWNWIRQFPGNRLEWMGYISYDGSNNYNPSLKNRISISRDTSKNQFFLKLNSVTTEDTATYYCVRADYWGQGTLVTVSA
VL: DTVMTQTPLSLPVSLGDQASISCRSSQSLESSDGHAYLNWYLQKPGQSPQLLIYRVSNRFSGVLHRFSGSGSGTDFTLKISRVEAEDLGVYFCLQFTHVPFTFGSGTKLEIKR
notes: Mouse monoclonal antibody from a hybridoma; heavy chain constant region is mouse IgG1; also called Nectin-4 mouse monoclonal antibody MM11; mouse antibody MM11
B1: the OD detection value (OD450 nm-650 nm) in experiment [1] was determined as 0.008; in experiment [2] it was 1.64; in experiment [3] it was 0.58; in experiment [4] it was 1.97; in experiment [5], 2.05. Further, the binding result in experiment [6] and in experiment [7] was “binds” each time.

B2: Antibody R012 (antibody, V domains shown)
VH: SKSVEESGGRLVTPGTPLTLTCTVSGFSLSTYAMSWVRQAPGKGLEYIGIISGRGTTYYASWLKGRFTISKTSTTVDLKITSPTTEDTATYFCARDAGISDVYTGYFNLWGQGTLVTVSS
VL: QPVLAQLPSASAALGASAKLTCTLSSAHRTYTIAWYQQQQGEAPRYLMMLKSDGSYTKGTGVPDRFSGSSSGADRYLIISSVQAADEADYYCGADDSGGYVFGGGTQLTVTG
notes: Rabbit monoclonal antibody from a phage library; heavy chain constant region is rabbit IgG; also called Nectin-4 rabbit monoclonal antibody R012; rabbit antibody R012
As to B2, the OD detection value (OD450 nm-650 nm) in experiment [1] turned out to be 0.008; in [2] it was 1.44; in experiment [3], 0.748; in experiment [4] it was 1.51; in experiment [5] it was 1.56. Besides, the binding result in [6] and in [8] was “binds” throughout.

B3: Antibody R036 (antibody, V domains shown)
VH: SQSVEESGGRLVTPGTPLTLTCTVSGFSLSSYAMSWVRQAPGKGLEYIGIIGGRGTTYYAIWAKGRFTISKTSTTVDLKITSPTTEDTATYFCARDAGTTYVGTTYVATGYFNLWGQGTLVTVSS
VL: QPVLTQPPSASAALGASAKLTCTLSSAHKTYTIAWYQQQQGEAPRYLMILKSDGSYTRGTGVPDRFSGSSSGADRYLIISSVQADDEADYYCGADDSGGYVFGGGTQLTVTG
notes: Rabbit monoclonal antibody from a phage library; heavy chain constant region is rabbit IgG; also called Nectin-4 rabbit monoclonal antibody R036; rabbit antibody R036
As for B3, the OD detection value (OD450 nm-650 nm) in experiment [1] was 0.007; in [2] it was 1.48; in [3], 0.73; in [4] it was 1.63; in experiment [5], 1.64. Further, the binding result in [9] and in [6] was “binds” each time.
